Data reported in the Human Domainome abundance scans (Beltran et al. 2025).

B1: Cytoplasmic polyadenylation element-binding protein 2, residues 513 to 575; numbered along this chain, Q7Z5Q1 (parent)
chain: KRVEVKPYVLDDQMCDECQGARCGGKFAPFFCANVTCLQYYCEFCWANIHSRAGREFHKPLVK

Variants of: B1
Test: abundance fitness (aPCA) (normalised: wild type 0, dead -1); higher = more abundant; growth selection in yeast, the domain comes from the species named
Details: Homo sapiens

Abundance fitness: each site, then its substitutions
M14: G -0.187 | V -0.085 | Y 0.082 | L -0.167 | D 0.039 | W -0.352 | T 0.069 | I -0.082 | H -0.33 | P -0.007 | R -0.154 | A -0.098 | S 0.098 | C -0.104 | E -0.073 | K 0.064 | F -0.067 | Q -0.036
D16: W -0.013 | H 0.076 | Y 0.192 | V -0.036 | E 0.047 | G 0.137 | L -0.271 | I 0.042 | M -0.089 | P -0.129 | N 0.253 | S 0.193 | C 0.053 | R 0.015 | T 0.115 | K 0.056 | F 0.145 | A 0.098
C15: P -0.454 | M -0.507 | L -0.531 | V -0.587 | A -0.394 | K -0.649 | S -0.377 | F -0.588 | W -0.759 | G -0.531 | R -0.606 | H -0.418 | I -0.626 | Y -0.519 | N -0.592 | Q -0.55 | D -0.691
G20: T -0.571 | V -0.418 | W -0.686 | R -0.522 | M -0.756 | Y -0.598 | I -0.841 | S -0.363 | D -0.093 | N -0.499 | C -0.503 | F -0.987 | Q -0.582 | E -0.462 | L -0.944 | P -0.688 | A -0.501 | H -0.509 | K -0.403
R22: A -0.126 | G -0.303 | S -0.04 | C -0.419 | E -0.222 | V -0.343 | M -0.026 | N -0.032 | W -0.332 | I -0.284 | Q 0.1 | H 0.077 | L -0.128 | D -0.289 | P -0.504 | T -0.283 | F -0.363 | K 0.006
E17: M -0.188 | D -0.136 | C -0.006 | R -0.059 | F -0.458 | W -0.25 | H 0.018 | L -0.117 | G -0.081 | V -0.061 | Q 0.09 | S -0.051 | N -0.128 | T -0.22 | P -0.366
Q19: D -0.056 | H -0.134 | T -0.056 | V -0.093 | E 0.006 | S -0.071 | A -0.008 | R -0.015 | M -0.091 | G -0.036 | Y -0.224 | L 0.075 | N -0.446 | F -0.151 | I -0.503 | P -0.579 | C -0.22 | W -0.295
A21: S -0.018 | M -0.22 | H -0.238 | D -0.159 | N -0.037 | C -0.447 | F -0.23 | L -0.203 | E -0.037 | I -0.217 | P -0.52 | T -0.117 | R -0.033 | Y -0.32 | Q -0.141 | W -0.41 | V -0.098
C18: I -1.05 | A -0.674 | N -0.748 | S -0.764 | H -1.01 | E -0.658 | R -0.641 | W -1.07 | T -0.643 | L -0.966 | F -0.954 | Y -0.966 | K -0.677 | P -0.84
C23: A -0.154
Q13: T -0.087 | Y -0.217 | P -0.211 | W -0.372 | R 0.003 | I -0.197 | K 0.161 | V -0.083 | L -0.291 | N -0.131 | M -0.056 | S -0.144
